In US20230129812A1, “COMPOSITIONS AND METHODS FOR TREATING PULMONARY HYPERTENSION” (Acceleron Pharma Inc., priority 2020, published 2023):
Entries after “also recorded” stand apart in the source; their conditions may differ.

How the values were obtained:
GDF11 [1] = biological target: T1, GDF11 (Homo sapiens, UniProt O95390); assay: A-204 reporter gene assay, pGL3(CAGA)12 luciferase; type: cell-based; details: A-204 reporter gene assay
T1 sequence (O95390 299-407): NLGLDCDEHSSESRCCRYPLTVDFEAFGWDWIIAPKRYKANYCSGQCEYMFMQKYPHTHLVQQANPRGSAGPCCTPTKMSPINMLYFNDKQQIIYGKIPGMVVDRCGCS
In short: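 Human rhabdomyosarcoma A-204 cells transfected with SMAD-responsive pGL3(CAGA)12 luciferase reporter (optionally with pRLCMV). Ligand in medium + 0.1% BSA, preincubated ~1 h with Fc-fusion inhibitor before addition to cells; after ~6 h cells lysed and luciferase activity measured.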

GDF8 [2] = biological target: T2, GDF8 (Homo sapiens, UniProt O14793); assay: A-204 reporter gene assay, pGL3(CAGA)12 luciferase; type: cell-based
T2 sequence (O14793 267-375): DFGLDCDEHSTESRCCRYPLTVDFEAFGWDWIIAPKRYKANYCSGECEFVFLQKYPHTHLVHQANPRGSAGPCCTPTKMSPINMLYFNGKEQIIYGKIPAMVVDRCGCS
Description: An A-204 reporter gene assay was used to evaluate the effects of ActRIIB-Fc proteins and ActRIIB variant Fc fusion polypeptides on signaling by GDF-11 and activin A. Cell line: human rhabdomyosarcoma (derived from muscle). Reporter vector: pGL3(CAGA)12 (described in Dennler et al, 1998, EMBO 17: 3091-3100). The CAGA12 motif is present in TGF-beta responsive genes (e.g., PAI-1 gene), so this vector is of general use for factors signaling through SMADs.
Day 1: Split A-204 cells into 48-well plate.
Day 2: A-204 cells transfected with 10 ug pGL3(CAGA)12 or pGL3(CAGA)12(10 ug)+pRLCMV (1 pg) and Fugene.
Day 3: Add factors (diluted into medium+0.1% BSA). Inhibitors need to be preincubated with factors for 1 hr before adding to cells. Six hrs later, cells were rinsed with PBS and lysed.
This is followed by a luciferase assay.
As described below, ActRIIB variants were also tested in this assay.
In addition, an A-204 Reporter Gene Assay was used to evaluate the effects of ALK4-Fc:ActRIIB-Fc heterodimer and ActRIIB-Fc:ActRIIB-Fc homodimer on signaling by activin A, activin B, GDF11, GDF8, BMP10, and BMP9. Cell line: Human Rhabdomyosarcoma (derived from muscle). Reporter vector: pGL3(CAGA)12 (as described in Dennler et al, 1998, EMBO 17: 3091-3100). The CAGA12 motif is present in TGFβ responsive genes (PAI-1 gene), so this vector is of general use for factors signaling through Smads. An exemplary A-204 Reporter Gene Assay is outlined below. • Day 1: Split A-204 cells into 48-well plate. • Day 2: A-204 cells transfected with 10 ug pGL3(CAGA)12 or pGL3(CAGA)12(10 ug)+pRLCMV (1 ug) and Fugene. • Day 3: Add factors (diluted into medium+0.1% BSA). Inhibitors need to be pre-incubated with Factors for about one hr before adding to cells. About six hrs later, cells are rinsed with PBS and then lysed.
Following the above steps, a Luciferase assay was performed.

BMP10 = biological target: T3, BMP10 (Homo sapiens, UniProt O95393); assay: Biacore ligand binding profile, ALK4-Fc:ActRIIB-Fc heterodimer vs homodimers, anti-Fc capture (Example 13, Table 13)
T3 sequence (O95393 317-424): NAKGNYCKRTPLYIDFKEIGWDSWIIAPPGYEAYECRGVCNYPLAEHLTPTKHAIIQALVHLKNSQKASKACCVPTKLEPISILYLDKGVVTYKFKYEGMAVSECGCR
Protocol: (§1) A Biacore™-based binding assay was used to compare ligand binding selectivity of the ALK4-Fc:ActRIIB-Fc heterodimeric complex described above with that of ActRIIB-Fc and ALK4-Fc homodimer complexes. The ALK4-Fc:ActRIeB-Fc heterodimer, […], and ALK4-Fc homodimer were independently captured onto the system using an anti-Fc antibody. Ligands were injected and allowed to flow over the captured receptor protein. Results are summarized in Table 13 below, in which ligand off-rates (kd) most indicative of effective polypeptides are denoted in bold.

BMP6 = biological target: T4, BMP6 (Homo sapiens, UniProt P22004); assay: as above
T4 sequence (P22004 375-513): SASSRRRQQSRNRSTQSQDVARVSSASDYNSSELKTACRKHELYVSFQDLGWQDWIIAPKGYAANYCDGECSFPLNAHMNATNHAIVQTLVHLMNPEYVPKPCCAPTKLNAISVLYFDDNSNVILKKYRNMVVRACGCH
Protocol: as §1

BMP9 = biological target: T5, BMP9 (Homo sapiens, UniProt Q9UK05); assay: as above
T5 sequence (Q9UK05 320-429): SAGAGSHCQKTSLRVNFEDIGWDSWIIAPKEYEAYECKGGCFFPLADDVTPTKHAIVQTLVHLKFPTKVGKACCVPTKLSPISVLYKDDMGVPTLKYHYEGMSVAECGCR
Protocol: as §1

GDF11 [3] = biological target: T1, GDF11; assay: as above
Protocol: as §1

GDF8 [4] = biological target: T2, GDF8; assay: as above
Protocol: as §1

activin A = biological target: T6, activin A (Homo sapiens, UniProt P08476); assay: as above
T6 sequence (P08476 311-426): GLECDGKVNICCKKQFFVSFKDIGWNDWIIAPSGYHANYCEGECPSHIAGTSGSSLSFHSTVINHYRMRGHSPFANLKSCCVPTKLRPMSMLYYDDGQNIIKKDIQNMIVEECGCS
Protocol: as §1

activin B = biological target: T7, activin B (Homo sapiens, UniProt P09529); assay: as above
T7 sequence (P09529 293-407): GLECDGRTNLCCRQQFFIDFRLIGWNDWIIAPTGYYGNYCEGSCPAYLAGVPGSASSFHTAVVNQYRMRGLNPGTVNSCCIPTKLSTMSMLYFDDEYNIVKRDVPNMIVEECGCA
Protocol: as §1

B1: ALK4-Fc:ActRIIB-Fc heterodimer: heteromeric complex of extracellular domains of human ActRIIB and human ALK4, each separately fused to an Fc domain with a linker (protein)
chain 1: GRGEAETRECIYYNANWELERTNQSGLERCEGEQDKRLHCYASWRNSSGTIELVKKGCWLDDFNCYDRQECVATEENPQVYFCCCEGNFCNERFTHLPEAGGPEVTYEPPPTAPTGGGTHTCPPCPAPELLGGPSVFLFPPKPKDTLMISRTPEVTCVVVDVSHEDPEVKFNWYVDGVEVHNAKTKPREEQYNSTYRVVSVLTVLHQDWLNGKEYKCKVSNKALPAPIEKTISKAKGQPREPQVYTLPPSRKEMTKNQVSLTCLVKGFYPSDIAVEWESNGQPENNYKTTPPVLKSDGSFFLYSKLTVDKSRWQQGNVFSCSVMHEALHNHYTQKSLSLSPGK
chain 2: SGPRGVQALLCACTSCLQANYTCETDGACMVSIFNLDGMEHHVRTCIPKVELVPAGKPFYCLSSEDLRNTHCCYTDYCNRIDLRVPSGHLKEPEHPSMWGPVETGGGTHTCPPCPAPELLGGPSVFLFPPKPKDTLMISRTPEVTCVVVDVSHEDPEVKFNWYVDGVEVHNAKTKPREEQYNSTYRVVSVLTVLHQDWLNGKEYKCKVSNKALPAPIEKTISKAKGQPREPQVYTLPPSREEMTKNQVSLTCLVKGFYPSDIAVEWESNGQPENNYDTTPPVLDSDGSFFLYSDLTVDKSRWQQGNVFSCSVMHEALHNHYTQKSLSLSPG
GDF11 [1]
  inhibition of GDF11 signaling: potent inhibitors
GDF8 [2]
  inhibition of GDF8 signaling: potent inhibitors
BMP10; Example 13
  BMP10 binding: substantially reduced binding
BMP10; ligand BMP10, Table 13
  ka: 5.6e+07 M⁻¹ s⁻¹
  kd: 0.0041 s⁻¹
BMP6; Example 13
  BMP6 binding: intermediate-level binding
BMP6; ligand BMP6, Table 13
  ka: 2e+06 M⁻¹ s⁻¹
  kd: 0.0055 s⁻¹
BMP9; Example 13
  BMP9 binding: substantially reduced binding; also recorded: low or no observable affinity
BMP9; ligand BMP9, Table 13
  kd: Transient*
GDF11 [3]; Example 13
  GDF11 binding: strong binding
GDF11 [3]; ligand GDF11, Table 13
  ka: 3.8e+07 M⁻¹ s⁻¹
  kd: 0.00011 s⁻¹
GDF8 [4]; Example 13
  GDF8 binding: strong binding
GDF8 [4]; ligand GDF8, Table 13
  ka: 390000 M⁻¹ s⁻¹
  kd: 0.00021 s⁻¹
Activin A; Example 13
  activin A binding: strong binding
Activin A; ligand Activin A, Table 13
  ka: 1.3e+07 M⁻¹ s⁻¹
  kd: 0.00015 s⁻¹
Activin B; Example 13
  activin B binding: enhanced binding to activin B compared with either homodimer
Activin B; ligand Activin B, Table 13
  ka: 7.1e+06 M⁻¹ s⁻¹
  kd: 4e-05 s⁻¹
